Here are results for one molecule from paper PMC11996917, “An inherited predisposition allele promotes gastric cancer via enhancing deubiquitination-mediated activation of epithelial-to-mesenchymal transition signaling”.

The target in the data set is GLI3 (His-tagged; probably zinc-finger fragment) (UniProt P10071 480-632). Briefly: EMSA; dose-dependent shift; 5 mM MgCl2; EMSA: 20 mM Tris-HCl pH 7.5, 50 mM NaCl, 5 mM MgCl2, 0.2 mM EDTA, 1 mM DTT, 1 h at room temperature; 6% native PAGE. As to conditions: protein: recombinant; tags: His; label: biotin; blunt. On the technique in general: Mobility shift assays separate free from complexed probe on a gel.
Sequence of GLI3 (His-tagged; probably zinc-finger fragment) (P10071 480-632): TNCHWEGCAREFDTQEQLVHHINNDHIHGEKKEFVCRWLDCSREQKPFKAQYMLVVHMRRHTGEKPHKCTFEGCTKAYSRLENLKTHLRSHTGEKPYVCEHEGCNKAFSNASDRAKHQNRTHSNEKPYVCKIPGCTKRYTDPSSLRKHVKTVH

B1: rs72856331-G (dsDNA)
DNA 1: CCCCAAGCAGGGGGTGGCCCCTGAG
DNA 2: CTCAGGGGCCACCCCCTGCTTGGGG
In the case of B1, the binding result is recorded as “binds”.
